# Publication PMC8864705 (Chemical Science, 2022)
# Where a chain is given by its changes, count along the chain named. Numbers in names are those of the source.
# T1: 4.1G-CTD triple mutation I958D/V959D/I960D (human, UniProt O43491 939-1005, I958D | V959D | I960D)
# T1 sequence (looked up): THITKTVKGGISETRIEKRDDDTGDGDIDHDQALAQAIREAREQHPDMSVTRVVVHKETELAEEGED
# T2: C-terminal domain of protein 4.1G (4.1G-CTD, aa 939–1005) (human, UniProt O43491 939-1005)
# T2 sequence (looked up): T1 sequence (looked up) with D20I, D21V, D22I
# What was measured:
# [1] = molecular target: T1, 4.1G-CTD triple mutation …; assay: ITC
# [2] = molecular target: T2, C-terminal domain of protein 4.1G …; assay: ITC
Kd [1],binding result [2],Binder
333 ± 73 µM,–,"SGRKTRSARRRTTQIINITMTKKLDV (domain or fragment, human, UniProt Q14980 1800-1825, looked up) [NuMA 1800–1825 (26-residue motif at the C-terminal region of nuclear mitotic apparatus protein)]"
–,binds,"SGRKTRSARRRTTQIINITMTKKLAV (domain or fragment, human, UniProt Q14980 1800-1825, looked up) [NuMA 1800–1825 mutant D1824A]"
